Measured values reported in paper PMC7565984, “A Phosphorylation-Induced Switch in the Nuclear Localization Sequence of the Intrinsically Disordered NUPR1 Hampers Binding to Importin” (Biomolecules, 2020).
Where a SMILES comes first, the peptide text is derived from it. [ ]: non-standard residue; d: D form. pT = C[C@@H](OP(=O)(O)O)[C@H](N)C(=O)O

T1: ΔImpα3 (importin α3 without the IBB domain, residues 64-521) (Homo sapiens, UniProt O00629)
T1 construct: The His-tagged ΔImpα3 (residues 64-521) was obtained from BL21 (DE3) cells as described; His-tag; made in house; host or cells: Escherichia coli BL21 (DE3)
T1 sequence (O00629 64-521): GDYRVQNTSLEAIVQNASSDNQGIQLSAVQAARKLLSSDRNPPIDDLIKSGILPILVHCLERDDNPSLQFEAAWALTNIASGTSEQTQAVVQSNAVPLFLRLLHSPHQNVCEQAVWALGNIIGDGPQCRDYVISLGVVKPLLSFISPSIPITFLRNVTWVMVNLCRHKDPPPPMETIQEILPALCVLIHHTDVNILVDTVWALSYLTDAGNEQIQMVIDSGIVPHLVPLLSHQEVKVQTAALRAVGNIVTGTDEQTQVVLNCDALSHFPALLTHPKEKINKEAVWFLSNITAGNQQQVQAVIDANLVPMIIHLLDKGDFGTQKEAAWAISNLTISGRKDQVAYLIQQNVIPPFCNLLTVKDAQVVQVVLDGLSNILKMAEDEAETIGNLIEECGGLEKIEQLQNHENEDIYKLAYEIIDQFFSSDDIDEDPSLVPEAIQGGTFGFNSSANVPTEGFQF

T2: human importin α3 (Impα3) (Homo sapiens, UniProt O00629)
T2 construct: although the IBB region maintains its independence within the whole Impα3 in terms of conformation; His-tag (N); made in house; host or cells: Escherichia coli BL21 (DE3)
T2 sequence (O00629 1-521): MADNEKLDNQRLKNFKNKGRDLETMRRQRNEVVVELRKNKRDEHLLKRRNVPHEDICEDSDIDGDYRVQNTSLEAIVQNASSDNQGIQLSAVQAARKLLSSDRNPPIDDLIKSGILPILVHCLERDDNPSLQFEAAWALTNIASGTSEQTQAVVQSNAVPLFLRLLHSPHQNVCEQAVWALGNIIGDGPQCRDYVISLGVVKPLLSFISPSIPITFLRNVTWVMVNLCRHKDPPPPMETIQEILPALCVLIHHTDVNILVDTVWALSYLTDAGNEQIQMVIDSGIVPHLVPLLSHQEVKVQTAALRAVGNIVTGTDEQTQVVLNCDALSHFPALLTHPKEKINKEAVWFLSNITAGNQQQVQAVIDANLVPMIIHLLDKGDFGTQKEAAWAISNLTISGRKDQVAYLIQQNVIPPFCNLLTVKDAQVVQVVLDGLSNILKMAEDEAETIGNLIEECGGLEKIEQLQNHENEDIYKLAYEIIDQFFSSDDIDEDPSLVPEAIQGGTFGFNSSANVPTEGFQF

T3: human importin α3 (intact, with the IBB domain) (human, UniProt O00629 1-521)
T3 construct: human importin α3 (KPNA4), intact protein with the IBB domain; codon-optimized synthetic DNA in the vector pHTP1; also called Impα3; KPNA4; source: E. coli BL21 (DE3), purified (as for ΔImpα3)
T3 sequence (looked up): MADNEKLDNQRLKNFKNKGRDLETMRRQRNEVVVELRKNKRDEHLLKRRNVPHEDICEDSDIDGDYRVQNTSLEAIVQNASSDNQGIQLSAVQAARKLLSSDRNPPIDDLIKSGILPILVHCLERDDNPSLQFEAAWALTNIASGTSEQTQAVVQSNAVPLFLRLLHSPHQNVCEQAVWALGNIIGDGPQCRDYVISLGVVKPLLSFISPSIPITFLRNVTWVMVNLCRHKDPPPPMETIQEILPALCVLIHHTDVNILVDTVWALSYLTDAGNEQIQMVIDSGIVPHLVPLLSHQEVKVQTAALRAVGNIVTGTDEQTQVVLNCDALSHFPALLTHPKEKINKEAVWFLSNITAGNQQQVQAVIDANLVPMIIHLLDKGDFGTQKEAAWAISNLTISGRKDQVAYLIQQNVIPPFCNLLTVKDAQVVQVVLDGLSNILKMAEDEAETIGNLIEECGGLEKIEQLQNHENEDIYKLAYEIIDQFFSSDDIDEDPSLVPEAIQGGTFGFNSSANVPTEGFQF

T4: truncated importin α3 without the IBB domain (residues 64-521) (human, UniProt O00629 64-521)
T4 construct: human importin α3 (KPNA4) without the IBB domain, residues 64-521; also called ΔImpα3; ΔImportin
T4 sequence (looked up): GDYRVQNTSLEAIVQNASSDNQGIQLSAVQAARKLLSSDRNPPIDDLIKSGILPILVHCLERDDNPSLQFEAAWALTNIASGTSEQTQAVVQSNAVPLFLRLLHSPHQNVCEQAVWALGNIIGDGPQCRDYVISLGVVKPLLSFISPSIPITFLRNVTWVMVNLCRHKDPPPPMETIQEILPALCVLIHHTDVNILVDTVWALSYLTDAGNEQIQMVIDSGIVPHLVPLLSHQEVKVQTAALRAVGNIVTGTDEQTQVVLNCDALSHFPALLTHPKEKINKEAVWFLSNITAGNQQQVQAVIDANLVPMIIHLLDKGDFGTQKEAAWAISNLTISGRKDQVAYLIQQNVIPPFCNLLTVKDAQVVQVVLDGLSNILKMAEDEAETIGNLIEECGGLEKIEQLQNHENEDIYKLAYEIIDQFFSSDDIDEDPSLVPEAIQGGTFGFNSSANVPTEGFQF


What was measured:
[1] = biological target: T1, ΔImpα3 (importin α3 without the IBB domain, residues 64-521); assay: ITC binding of NLS-NUPR1 peptides / NUPR1 to ΔImpα3; conditions: ITC, 298 K; for ΔH (binding enthalpy), ΔImpα3 / −TΔS (entropic contribution), ΔImpα3: Tris 50 mM pH 8; for ΔH (binding enthalpy), ΔImpα3: absolute error 0.5 kcal/mol; for −TΔS (entropic contribution), ΔImpα3: calculated from Kd and ΔH, absolute error 0.7 kcal/mol
Procedure: (§1) The experimental set-up and data processing of ITC experiments has been described previously. Calorimetric titrations, performed in an Auto-iTC200 calorimeter (MicroCal, Malvern-Panalytical, Malvern, UK) consisted of series of 19 2-μL injections, with 150 s time spacing and a 750-rpm stirring speed. Impα3 or ΔImpα3 (at 10–20 μM) was loaded into the calorimetric cell and NLS-NUPR1 peptides in the syringe (150–300 μM); all solutions were prepared in buffer Tris 50 mM, pH 8. […] The binding affinity (association constant) and the binding enthalpy were estimated through a least-squares nonlinear regression data analysis, from which the Gibbs energy and the entropic contribution to the binding were calculated using well-known thermodynamic relationships. Since the binding stoichiometry is constrained by the model, the parameter n provides a fraction of the active or binding competent protein. Experiments for each peptide and importin species were performed, at least, in duplicates.

[2] = Translational diffusion by NMR DOSY (hydrodynamic properties); format: physicochemical; conditions: for D, translational diffusion coefficient: 283 K, pH 7.2, 50-mM deuterated Tris, 100% D2O, peptide 120 μM; for Rh, hydrodynamic radius from D: from the translational diffusion coefficient of dioxane (Rh = 2.12 Å) added to each sample
Procedure: Concentrations of peptides in all DOSY experiments were 120 μM, and 128 scans, where the gradient strength was varied, were acquired for each curve. Translational self-diffusion measurements were performed with the pulsed gradient spin-echo sequence in the presence of 100% D2O. Experimental details have been described elsewhere. Briefly, the gradient strength was varied in sixteen linear steps between 2% and 95% of the total power of the gradient coil. The gradient strength was previously calibrated by using the value of the translational diffusion coefficient, D, for the residual proton water line in a sample containing 100% D2O in a 5-mm tube [34]. In our experiments for each peptide, the duration of the gradient was 2.25 ms, the time between the two pulse gradients in the pulse sequence was set to 200 ms, and the recovery delay between the bipolar gradients was set to 100 μs. The methyl groups with signals between 1.0 and 0.80 ppm were used for integration. Fitting of the exponential curves obtained from experimental data was carried out with KaleidaGraph (Synergy Software, Version 3.5), as described. A final concentration of 1% of dioxane, which was assumed to have a hydrodynamic radius Rh = 2.12 Å [34], was added to the solutions of each of the peptides to have a comparison for estimating their sizes.

[3] = biological target: T2, human importin α3 (Impα3); assay: ITC binding of NLS-NUPR1 peptides / NUPR1 to Impα3; conditions: for ΔH (binding enthalpy), Impα3: absolute error 0.5 kcal/mol
Procedure: as §1

[4] = biological target: T3, human importin α3 (intact, with the IBB …); assay: ITC; Impα3 or ΔImpα3 (10–20 μM) in the cell, NLS-NUPR1 peptide (150–300 μM) in the syringe; Tris 50 mM, pH 8; 298 K; single ligand binding site (1:1) model, n gives the fraction of binding-competent protein; conditions: both partners purified
[5] = biological target: T4, truncated importin α3 without the IBB …; assay: as above; conditions: both partners purified

Molecule | ΔH (binding enthalpy), ΔImpα3 [1] [kcal/mol] | −TΔS (entropic contribution), ΔImpα3 [1] [kcal/mol] | n (stoichiometry; fraction of binding-competent protein), ΔImpα3 ([1]; absolute error 0.2, value in parenthesis = fixed in the fit due to low affinity) | D, translational diffusion coefficient [2] [cm^2 s^−1 × 10^6] | Rh, hydrodynamic radius from D [2] [Å] | ΔH (binding enthalpy), Impα3 ([3]; ITC, 298 K, Tris 50 mM pH 8) [kcal/mol] | −TΔS (entropic contribution), Impα3 ([3]; ITC, 298 K, Tris 50 mM pH 8, calculated from Kd and ΔH, absolute error 0.7 kcal/mol) [kcal/mol] | n (stoichiometry; fraction of binding-competent protein), Impα3 ([3]; ITC, 298 K, absolute error 0.2, value in parenthesis = fixed in the fit due to low affinity) | Decrease of the affinity for Impα3 relative to wt peptide ([3]; from ITC Kd values) | Kd ([3]; ITC, 298 K, Tris 50 mM pH 8, importin 10–20 μM in cell, peptide 150–300 μM in syringe, 1:1 model, at least duplicates, relative error 30%, read-out: Kd (dissociation constant), Impα3) [µM] | Kd [4] [µM] | dH [4] [kcal/mol] | stoichiometry N [4] | Kd [5] [µM] | dH [5] [kcal/mol] | stoichiometry N [5]
CC(=O)N[C@@H](Cc1ccc(O)cc1)C(=O)N[C@H](C(=O)N[C@@H](CC(N)=O)C(=O)N[C@@H](CCCNC(=N)N)C(=O)N1CCC[C@H]1C(=O)N[C@@H](CO)C(=O)N1CCC[C@H]1C(=O)NCC(=O)NCC(=O)N[C@@H](Cc1c[nH]cn1)C(=O)N[C@@H](CCC(=O)O)C(=O)N[C@@H](CCCNC(=N)N)C(=O)N[C@@H](C)C(=O)N[C@@H](CC(C)C)C(=O)N[C@H](C(=O)N[C@H](C(=O)N[C@@H](CCCCN)C(=O)N[C@@H](CC(C)C)C(=O)N[C@@H](CCC(N)=O)C(=O)N[C@@H](CC(N)=O)C(=O)N[C@@H](CO)C(=O)N[C@@H](CCC(=O)O)C(N)=O)[C@@H](C)O)C(C)C)[C@@H](C)O [K65A] (Ac-YTNRPSPGGHERALVTKLQNSE-NH2) | -10.2 | 2.6 | 1.4 | 1.94 ± 0.08 | 11 ± 1 | -2.8 | -4.6 | 1.4 | two-fold |  |  |  |  |  |  | 
CC(=O)N[C@@H](Cc1ccc(O)cc1)C(=O)N[C@H](C(=O)N[C@@H](CC(N)=O)C(=O)N[C@@H](CCCNC(=N)N)C(=O)N1CCC[C@H]1C(=O)N[C@@H](CO)C(=O)N1CCC[C@H]1C(=O)NCC(=O)NCC(=O)N[C@@H](Cc1c[nH]cn1)C(=O)N[C@@H](CCC(=O)O)C(=O)N[C@@H](CCCNC(=N)N)C(=O)N[C@@H](CCCCN)C(=O)N[C@@H](CC(C)C)C(=O)N[C@H](C(=O)N[C@H](C(=O)N[C@@H](CCCCN)C(=O)N[C@@H](CC(C)C)C(=O)N[C@@H](CCC(N)=O)C(=O)N[C@@H](CC(N)=O)C(=O)N[C@@H](CO)C(=O)N[C@@H](CCC(=O)O)C(N)=O)[C@@H](C)OP(=O)(O)O)C(C)C)[C@@H](C)O [pT68] (Ac-YTNRPSPGGHERKLV[pT]KLQNSE-NH2) | -28.2 | 22.0 |  | 1.89 ± 0.08 | 11 ± 1 | -14.8 |  |  |  | 27 |  |  |  |  |  | 
Ac-YTNRPSPGGHERKLVTKLQNSE-NH2 (tyrosine introduced at the N terminus for absorbance measurements; not a residue of NUPR1; The added Tyr stands where NUPR1 has residue 53; also called wt; wt peptide; source: synthetic peptide (NZYtech, purity 95%)) [wild-type NLS-NUPR1 peptide (residues 54-74 of NUPR1 with an added N-terminal Tyr)] |  |  |  |  |  |  |  |  |  |  | 1.7 | 0.8 | 0.9 | 0.95 | -3.7 | 1
Ac-YTNRPSPGGHERALVEKLQNSE-NH2 (tyrosine introduced at the N terminus for absorbance measurements; not a residue of NUPR1; also called K65AT68E peptide; source: synthetic peptide (NZYtech, purity 95%)) [NLS-NUPR1 peptide K65AT68E] |  |  |  |  |  |  |  |  |  |  | 21 | -7.8 |  | 14 | -17.9 | 
Ac-YTNRPSPGGHERKLVTALQNSE-NH2 (tyrosine introduced at the N terminus for absorbance measurements; not a residue of NUPR1; also called K69A peptide; Lys69Ala; source: synthetic peptide (NZYtech, purity 95%)) [NLS-NUPR1 peptide K69A] |  |  |  |  |  |  |  |  |  |  | 11 | -10.8 | 1.3 | 7.6 | -21.3 | 1.4
